Earlier results as cited in PMC5179943.

Target: LRP2/Megalin (Homo sapiens) (UniProt P98164)
Assay: solid phase binding assay

Sequence of UniProt P98164 (P98164 26-4423): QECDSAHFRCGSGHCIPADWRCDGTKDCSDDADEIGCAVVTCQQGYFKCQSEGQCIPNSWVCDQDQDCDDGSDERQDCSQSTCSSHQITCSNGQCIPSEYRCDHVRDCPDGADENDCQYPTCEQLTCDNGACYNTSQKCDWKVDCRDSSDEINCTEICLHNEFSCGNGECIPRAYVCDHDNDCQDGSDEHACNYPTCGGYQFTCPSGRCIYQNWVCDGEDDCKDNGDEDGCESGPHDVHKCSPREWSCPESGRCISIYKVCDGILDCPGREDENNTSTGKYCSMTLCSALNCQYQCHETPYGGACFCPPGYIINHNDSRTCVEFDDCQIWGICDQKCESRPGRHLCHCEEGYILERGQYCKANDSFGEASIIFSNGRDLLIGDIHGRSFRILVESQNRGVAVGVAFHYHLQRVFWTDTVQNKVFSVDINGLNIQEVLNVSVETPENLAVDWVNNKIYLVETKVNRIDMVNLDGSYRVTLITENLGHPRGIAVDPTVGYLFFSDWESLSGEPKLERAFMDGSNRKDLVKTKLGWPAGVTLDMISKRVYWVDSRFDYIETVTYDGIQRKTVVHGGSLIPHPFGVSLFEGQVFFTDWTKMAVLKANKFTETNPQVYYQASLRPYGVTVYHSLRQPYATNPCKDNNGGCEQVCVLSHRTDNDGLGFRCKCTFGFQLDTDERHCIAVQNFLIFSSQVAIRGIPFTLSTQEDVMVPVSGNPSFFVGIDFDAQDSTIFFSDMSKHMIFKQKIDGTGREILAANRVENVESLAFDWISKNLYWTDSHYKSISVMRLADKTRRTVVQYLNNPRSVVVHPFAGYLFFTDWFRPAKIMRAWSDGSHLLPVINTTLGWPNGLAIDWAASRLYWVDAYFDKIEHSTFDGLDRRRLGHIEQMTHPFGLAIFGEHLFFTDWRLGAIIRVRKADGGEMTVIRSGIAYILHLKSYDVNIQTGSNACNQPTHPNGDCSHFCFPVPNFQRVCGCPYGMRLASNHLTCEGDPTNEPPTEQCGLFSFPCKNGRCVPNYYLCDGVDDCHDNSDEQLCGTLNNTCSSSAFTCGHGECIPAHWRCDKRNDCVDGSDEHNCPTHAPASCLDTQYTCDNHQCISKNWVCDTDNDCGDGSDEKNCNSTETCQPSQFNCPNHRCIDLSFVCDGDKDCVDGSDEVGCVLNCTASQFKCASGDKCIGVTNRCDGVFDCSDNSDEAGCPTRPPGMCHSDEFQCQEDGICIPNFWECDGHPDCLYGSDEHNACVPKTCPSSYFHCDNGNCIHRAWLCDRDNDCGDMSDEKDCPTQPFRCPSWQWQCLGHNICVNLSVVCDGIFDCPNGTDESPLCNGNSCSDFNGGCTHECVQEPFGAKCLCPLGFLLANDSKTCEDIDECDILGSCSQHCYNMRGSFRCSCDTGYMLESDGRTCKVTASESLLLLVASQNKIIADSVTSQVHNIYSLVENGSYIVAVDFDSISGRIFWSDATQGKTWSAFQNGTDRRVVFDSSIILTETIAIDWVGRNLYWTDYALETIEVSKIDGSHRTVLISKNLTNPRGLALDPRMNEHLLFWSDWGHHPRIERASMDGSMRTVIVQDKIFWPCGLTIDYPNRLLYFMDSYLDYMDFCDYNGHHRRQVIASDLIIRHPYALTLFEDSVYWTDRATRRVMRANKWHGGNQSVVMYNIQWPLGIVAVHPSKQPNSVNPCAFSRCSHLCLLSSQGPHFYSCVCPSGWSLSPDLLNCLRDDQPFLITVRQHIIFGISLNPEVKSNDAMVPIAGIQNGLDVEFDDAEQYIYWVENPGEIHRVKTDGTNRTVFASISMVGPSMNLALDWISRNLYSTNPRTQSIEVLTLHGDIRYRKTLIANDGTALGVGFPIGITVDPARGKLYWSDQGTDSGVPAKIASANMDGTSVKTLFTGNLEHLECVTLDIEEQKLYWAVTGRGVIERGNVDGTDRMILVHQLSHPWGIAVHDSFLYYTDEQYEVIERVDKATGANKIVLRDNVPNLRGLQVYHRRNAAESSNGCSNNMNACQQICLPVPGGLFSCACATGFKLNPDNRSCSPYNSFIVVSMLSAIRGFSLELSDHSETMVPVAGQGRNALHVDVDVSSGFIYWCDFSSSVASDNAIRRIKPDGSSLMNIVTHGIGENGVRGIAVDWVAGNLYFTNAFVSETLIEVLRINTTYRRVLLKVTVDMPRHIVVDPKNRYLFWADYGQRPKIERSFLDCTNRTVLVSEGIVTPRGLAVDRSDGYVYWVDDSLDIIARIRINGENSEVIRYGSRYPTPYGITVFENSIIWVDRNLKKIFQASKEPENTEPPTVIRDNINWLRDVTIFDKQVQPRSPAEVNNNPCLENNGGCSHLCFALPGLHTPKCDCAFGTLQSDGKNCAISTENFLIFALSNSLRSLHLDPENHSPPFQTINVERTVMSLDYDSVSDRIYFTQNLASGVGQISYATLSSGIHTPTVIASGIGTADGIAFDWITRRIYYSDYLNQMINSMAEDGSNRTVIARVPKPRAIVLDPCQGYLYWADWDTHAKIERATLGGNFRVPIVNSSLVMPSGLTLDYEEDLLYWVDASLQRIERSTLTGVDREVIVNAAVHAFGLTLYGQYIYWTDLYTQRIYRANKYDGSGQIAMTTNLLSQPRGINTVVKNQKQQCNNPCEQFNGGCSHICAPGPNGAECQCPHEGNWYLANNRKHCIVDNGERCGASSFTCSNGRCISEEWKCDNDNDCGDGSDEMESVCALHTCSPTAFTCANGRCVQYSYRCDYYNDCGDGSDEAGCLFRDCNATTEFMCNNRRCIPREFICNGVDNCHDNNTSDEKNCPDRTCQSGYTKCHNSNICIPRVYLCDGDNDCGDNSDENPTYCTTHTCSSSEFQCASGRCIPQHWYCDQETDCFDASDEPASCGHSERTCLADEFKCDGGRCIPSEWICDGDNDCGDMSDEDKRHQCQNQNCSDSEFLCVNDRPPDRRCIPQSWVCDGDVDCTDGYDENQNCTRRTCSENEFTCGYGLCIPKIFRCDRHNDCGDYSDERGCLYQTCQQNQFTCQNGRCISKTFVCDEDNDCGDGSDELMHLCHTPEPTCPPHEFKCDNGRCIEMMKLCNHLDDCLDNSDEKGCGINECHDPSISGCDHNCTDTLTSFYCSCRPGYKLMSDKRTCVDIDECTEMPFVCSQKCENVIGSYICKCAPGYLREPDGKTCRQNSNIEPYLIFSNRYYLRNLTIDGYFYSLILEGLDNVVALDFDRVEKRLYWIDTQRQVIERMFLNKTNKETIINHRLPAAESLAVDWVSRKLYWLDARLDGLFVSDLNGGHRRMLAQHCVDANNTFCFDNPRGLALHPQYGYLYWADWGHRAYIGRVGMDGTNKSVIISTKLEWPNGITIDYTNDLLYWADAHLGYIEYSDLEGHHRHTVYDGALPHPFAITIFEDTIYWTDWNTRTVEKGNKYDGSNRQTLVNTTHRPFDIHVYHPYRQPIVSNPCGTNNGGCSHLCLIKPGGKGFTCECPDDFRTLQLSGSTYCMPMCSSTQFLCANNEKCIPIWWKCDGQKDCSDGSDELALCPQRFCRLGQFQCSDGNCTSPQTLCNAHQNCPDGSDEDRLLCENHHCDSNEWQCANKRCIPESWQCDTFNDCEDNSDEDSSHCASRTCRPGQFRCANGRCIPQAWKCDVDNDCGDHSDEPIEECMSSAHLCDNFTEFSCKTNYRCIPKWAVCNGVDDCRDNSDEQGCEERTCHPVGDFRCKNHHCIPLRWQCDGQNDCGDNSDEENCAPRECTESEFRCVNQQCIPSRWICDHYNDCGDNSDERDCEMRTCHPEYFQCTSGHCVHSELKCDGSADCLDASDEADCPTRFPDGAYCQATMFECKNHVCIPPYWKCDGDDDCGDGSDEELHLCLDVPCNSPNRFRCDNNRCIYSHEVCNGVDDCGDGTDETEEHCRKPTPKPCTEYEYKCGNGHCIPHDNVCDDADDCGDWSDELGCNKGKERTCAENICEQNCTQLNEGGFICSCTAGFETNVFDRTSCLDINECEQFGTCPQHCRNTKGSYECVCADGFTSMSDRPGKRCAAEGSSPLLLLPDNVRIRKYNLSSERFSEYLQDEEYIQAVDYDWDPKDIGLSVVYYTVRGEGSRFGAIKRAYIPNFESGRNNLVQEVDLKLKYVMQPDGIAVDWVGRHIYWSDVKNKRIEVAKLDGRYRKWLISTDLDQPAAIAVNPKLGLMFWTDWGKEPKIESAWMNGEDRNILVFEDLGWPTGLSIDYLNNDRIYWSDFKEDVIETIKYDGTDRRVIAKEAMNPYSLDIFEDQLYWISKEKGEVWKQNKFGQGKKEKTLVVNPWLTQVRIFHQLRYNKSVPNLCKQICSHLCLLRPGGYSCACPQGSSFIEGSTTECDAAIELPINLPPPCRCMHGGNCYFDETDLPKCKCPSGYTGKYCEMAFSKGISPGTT

## Clusterin (from UniProt P10909)
  Kd: 14.2 nM
